One block for each binder: values may come before it.
Experiments:
[1] = molecular target: T1, cynomolgus monkey FcγRIIa1 extracellular domain with C-terminal His-tag (cynomolgus monkey); experiment: SPR (BIACORE); KD of SG1 / KD of variant
T1 construct: also called cyno FcgRIIa1; cynoFcγRIIa1; not shown: His-tag added to the C-terminus
T1 chain: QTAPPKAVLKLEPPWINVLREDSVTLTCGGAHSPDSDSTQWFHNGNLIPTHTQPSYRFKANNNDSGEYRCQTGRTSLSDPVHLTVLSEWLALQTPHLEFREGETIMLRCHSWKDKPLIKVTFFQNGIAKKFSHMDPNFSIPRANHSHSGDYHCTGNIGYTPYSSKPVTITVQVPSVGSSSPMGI

[2] = molecular target: T2, cynomolgus monkey FcγRIIa2 extracellular domain with C-terminal His-tag (cynomolgus monkey); experiment: SPR (BIACORE); KD of SG1 / KD of variant
T2 construct: also called cyno FcgRIIa2; cynoFcγRIIa2; not shown: His-tag added to the C-terminus
T2 chain: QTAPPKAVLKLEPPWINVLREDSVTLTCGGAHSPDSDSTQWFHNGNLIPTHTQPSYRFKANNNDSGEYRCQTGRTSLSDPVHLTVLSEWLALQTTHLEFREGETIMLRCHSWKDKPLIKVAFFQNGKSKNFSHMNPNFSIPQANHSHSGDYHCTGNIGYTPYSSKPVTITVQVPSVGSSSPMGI

[3] = molecular target: T3, cynomolgus monkey FcγRIIa3 extracellular domain with C-terminal His-tag (cynomolgus monkey); experiment: SPR (BIACORE); KD of SG1 / KD of variant
T3 construct: also called cyno FcgRIIa3; cynoFcγRIIa3; not shown: His-tag added to the C-terminus
T3 chain: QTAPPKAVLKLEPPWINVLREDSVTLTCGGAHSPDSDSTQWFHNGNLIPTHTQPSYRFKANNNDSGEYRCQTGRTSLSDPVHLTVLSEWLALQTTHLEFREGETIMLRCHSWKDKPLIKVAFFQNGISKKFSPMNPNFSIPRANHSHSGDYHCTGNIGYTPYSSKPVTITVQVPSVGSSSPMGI

[4] = molecular target: T4, cynomolgus monkey FcγRIIb extracellular domain with C-terminal His-tag (cynomolgus monkey); experiment: SPR (BIACORE); KD of SG1 / KD of variant
T4 construct: also called cyno FcgRIIb; cynoFcγRIIb; not shown: His-tag added to the C-terminus
T4 chain: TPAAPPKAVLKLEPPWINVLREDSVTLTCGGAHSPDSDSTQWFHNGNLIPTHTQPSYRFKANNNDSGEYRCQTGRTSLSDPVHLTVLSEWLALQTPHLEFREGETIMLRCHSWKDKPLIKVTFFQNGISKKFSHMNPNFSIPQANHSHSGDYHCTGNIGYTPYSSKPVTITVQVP

[5] = molecular target: T5, cynomolgus monkey FcγRIIIaS extracellular domain with C-terminal His-tag (cynomolgus monkey, UniProt A3RFZ7 21-206 (rhesus entry)); experiment: SPR (BIACORE); KD of SG1 / KD of variant
T5 construct: also called cyno FcgRIIIaS; cynoFcγRIIIaS; not shown: His-tag added to the C-terminus

[6] = molecular target: T6, human FcγRIIaH extracellular domain with C-terminal His-tag (human, UniProt P12318 34-217); experiment: SPR (BIACORE); KD of SG1 / KD of variant
T6 construct: also called human FcgRIIaH; FcγRIIa type H; not shown: His-tag added to the C-terminus
T6 sequence: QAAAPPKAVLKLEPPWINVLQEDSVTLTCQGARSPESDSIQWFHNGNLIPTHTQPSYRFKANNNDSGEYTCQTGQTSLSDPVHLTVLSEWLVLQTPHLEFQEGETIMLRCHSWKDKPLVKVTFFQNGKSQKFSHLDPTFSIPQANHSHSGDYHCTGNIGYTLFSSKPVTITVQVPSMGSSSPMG

[7] = molecular target: T7, human FcγRIIaR extracellular domain with C-terminal His-tag (human, UniProt P12318 34-217); experiment: SPR (BIACORE); KD of SG1 / KD of variant
T7 construct: also called human FcgRIIaR; FcγRIIa type R; not shown: His-tag added to the C-terminus
T7 chain: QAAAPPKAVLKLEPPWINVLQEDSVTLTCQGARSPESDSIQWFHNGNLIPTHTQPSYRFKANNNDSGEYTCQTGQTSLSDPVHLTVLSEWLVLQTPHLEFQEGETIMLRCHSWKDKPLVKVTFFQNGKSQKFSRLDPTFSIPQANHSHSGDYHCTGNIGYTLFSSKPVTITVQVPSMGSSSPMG

[8] = molecular target: T8, human FcγRIIb extracellular domain with C-terminal His-tag (human, UniProt P31994 43-217); experiment: SPR (BIACORE); KD of SG1 / KD of variant
T8 construct: also called human FcgRIIb; not shown: His-tag added to the C-terminus
T8 sequence: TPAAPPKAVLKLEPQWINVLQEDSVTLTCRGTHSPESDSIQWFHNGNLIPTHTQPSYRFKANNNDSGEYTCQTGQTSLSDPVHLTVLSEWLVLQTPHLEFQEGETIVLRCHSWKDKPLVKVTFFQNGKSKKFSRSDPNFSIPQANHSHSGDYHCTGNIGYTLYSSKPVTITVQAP

[9] = molecular target: T9, human FcγRIIIaV extracellular domain with C-terminal His-tag (human, UniProt P08637 17-208); experiment: SPR (BIACORE); KD of SG1 / KD of variant
T9 construct: also called human FcgRIIIaV; not shown: His-tag added to the C-terminus

[10] = molecular target: T1, cynomolgus monkey FcγRIIa1 …; experiment: SPR (BIACORE), antibody captured, FcgR analyte
[11] = molecular target: T2, cynomolgus monkey FcγRIIa2 …; experiment: SPR (BIACORE), antibody captured, FcgR analyte
[12] = molecular target: T3, cynomolgus monkey FcγRIIa3 …; experiment: SPR (BIACORE), antibody captured, FcgR analyte
[13] = molecular target: T4, cynomolgus monkey FcγRIIb extracellular …; experiment: SPR (BIACORE), antibody captured, FcgR analyte
[14] = molecular target: T5, cynomolgus monkey FcγRIIIaS …; experiment: SPR (BIACORE), antibody captured, FcgR analyte
[15] = molecular target: T6, human FcγRIIaH extracellular domain …; experiment: SPR (BIACORE), antibody captured, FcgR analyte
[16] = molecular target: T7, human FcγRIIaR extracellular domain …; experiment: SPR (BIACORE), antibody captured, FcgR analyte
[17] = molecular target: T8, human FcγRIIb extracellular domain with …; experiment: SPR (BIACORE), antibody captured, FcgR analyte
[18] = molecular target: T9, human FcγRIIIaV extracellular domain …; experiment: SPR (BIACORE), antibody captured, FcgR analyte
[19] = molecular target: T10, cynomolgus monkey FcγRIIa2 extracellular domain, His-tagged (cynomolgus monkey); experiment: SPR (BIACORE); KD of SG1 divided by KD of the variant
T10 construct: also called cyno FcgRIIa2; cynoFcγRIIa2; not shown: His-tag added to the C-terminus
T10 chain: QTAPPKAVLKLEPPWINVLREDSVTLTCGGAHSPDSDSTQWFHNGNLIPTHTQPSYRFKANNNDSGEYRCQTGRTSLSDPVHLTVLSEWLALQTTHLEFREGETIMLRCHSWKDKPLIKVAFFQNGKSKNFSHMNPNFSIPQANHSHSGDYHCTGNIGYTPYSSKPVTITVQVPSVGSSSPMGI
Experimental: (§1) The kinetic analysis of interactions between these antibodies and FcγR was carried out using BIACORE® T200 or BIACORE® 4000 (GE Healthcare). HBS-EP+ (GE Healthcare) was used as the running buffer, and the measurement temperature was set to 25° C. […] After the measurement, the antibody captured on the chip was washed off by allowing reaction with 10 mM glycine-HCl, pH1.5 and 25 mM NaOH so that the chip was regenerated and used repeatedly. The sensorgrams obtained as measurement results were analyzed by the 1:1 Langmuir binding model using the BIACORE® Evaluation Software to calculate the binding rate constant ka (L/mol/s) and dissociation rate constant kd (1/s), and the dissociation constant KD (mol/L) was calculated from these values. […] Regarding such interactions, KD values were calculated using the following 1:1 binding model described in BIACORE® T100 Software Handbook BR1006-48 Edition AE.

[20] = molecular target: T11, cynomolgus monkey FcγRIIa3 extracellular domain, His-tagged (cynomolgus monkey); experiment: as above
T11 construct: also called cyno FcgRIIa3; cynoFcγRIIa3; not shown: His-tag added to the C-terminus
T11 chain: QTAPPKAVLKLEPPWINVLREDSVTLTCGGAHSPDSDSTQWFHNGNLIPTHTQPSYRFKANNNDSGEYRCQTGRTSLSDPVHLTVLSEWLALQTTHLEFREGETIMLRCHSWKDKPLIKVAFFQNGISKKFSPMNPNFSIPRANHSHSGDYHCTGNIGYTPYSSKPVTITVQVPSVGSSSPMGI
Experimental: as §1

[21] = molecular target: T12, cynomolgus monkey FcγRIIIaS extracellular domain, His-tagged (cynomolgus monkey, UniProt A3RFZ7 21-206 (rhesus entry)); experiment: as above
T12 construct: also called cyno FcgRIIIaS; cynoFcγRIIIaS; not shown: His-tag added to the C-terminus
Experimental: as §1

[22] = molecular target: T13, human FcγRIIaR extracellular domain, His-tagged (human, UniProt P12318 34-217); experiment: as above
T13 construct: also called human FcgRIIaR; FcγRIIa (type R); not shown: His-tag added to the C-terminus
T13 chain: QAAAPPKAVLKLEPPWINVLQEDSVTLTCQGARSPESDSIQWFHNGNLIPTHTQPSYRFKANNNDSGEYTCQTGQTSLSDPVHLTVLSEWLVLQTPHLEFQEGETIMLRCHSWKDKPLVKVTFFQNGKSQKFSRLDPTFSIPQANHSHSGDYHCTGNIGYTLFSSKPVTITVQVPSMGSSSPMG
Experimental: as §1

T9 sequence (P08637 17-208 F176V): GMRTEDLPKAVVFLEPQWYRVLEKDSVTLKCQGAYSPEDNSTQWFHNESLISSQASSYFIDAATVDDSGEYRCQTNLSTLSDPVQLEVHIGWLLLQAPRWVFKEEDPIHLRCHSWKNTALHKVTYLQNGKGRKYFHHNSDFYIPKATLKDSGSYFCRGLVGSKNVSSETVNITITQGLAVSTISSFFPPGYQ
T5 sequence (A3RFZ7 21-206): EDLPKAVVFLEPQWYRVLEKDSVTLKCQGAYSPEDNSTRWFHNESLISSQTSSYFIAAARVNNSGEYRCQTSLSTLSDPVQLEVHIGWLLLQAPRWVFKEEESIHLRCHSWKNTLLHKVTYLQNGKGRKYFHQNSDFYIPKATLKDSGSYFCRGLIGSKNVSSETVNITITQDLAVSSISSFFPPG
T12 sequence (A3RFZ7 21-206): as above

KD fold (SG1 = 1) [1]: 18.8 fold
KD fold (SG1 = 1) [2]: 2.8 fold
KD fold (SG1 = 1) [3]: 3.5 fold
KD fold (SG1 = 1) [4]: 2.1 fold
KD fold (SG1 = 1) [5]: 0.12 fold
KD fold (SG1 = 1) [6]: 0.3 fold
KD fold (SG1 = 1) [7]: 0.5 fold
KD fold (SG1 = 1) [8]: 5.2 fold
KD fold (SG1 = 1) [9]: 0.09 fold
Kd [10]: 170 nM
Kd [11]: 1800 nM
Kd [12]: 4.8 µM
Kd [13]: 850 nM
Kd [14]: 3.1 µM
Kd [15]: 2200 nM
Kd [16]: 2100 nM
Kd [17]: 880 nM
Kd [18]: 8.8 µM
B1: M103205H795-MY146/M103202L889-SK1 (antibody, human IgG1, kappa, name in EU numbering)
heavy: QVTLKESGPVLVKPTETLTLTCTVSGIDLSHDDISWVRQAPGKGLEWVGIISYAGSTYYASWAKGRLTISKDTSKNQVVLTMTNMDPVDTATYYCARGVPAYSHGGDLWGQGTLVTVSSASTKGPSVFPLAPSSKSTSGGTAALGCLVKDYFPEPVTVSWNSGALTSGVHTFPAVLQSSGLYSLSSVVTVPSSSLGTQTYICNVNHKPSNTKVDKKVEPKSCDKTHTCPPCPAPELLNGPSVFLFPPKPKDTLMISRTPEVTCVVVDVSEEDPEVKFNWYVDGVEVHNAKTKPREEQYNLTYRVVSVLTVLHQDWLNGKEYKCKVSNKALPAPIEKTISKAKGQPREPQVYTLPPSREEMTKNQVSLTCLVKGFYPSDIAVEWESNGQPENNYKTTPMVLDSDGSFFLYSKLTVDKSRWQQGNVFSCSVMHEALHNHYTQKSLSLSP
light: DIVMTQSPATLSLSPGERATLSCTSSQSVYHANWLSWFQQKPGQPPKLLIYWASTLAYGVPSRFSGSGSGTDFTLTISSLQPEDAATYYCAGGYGGGRYAFGQGTKVEIKRTVAAPSVFIFPPSDEQLKSGTASVVCLLNNFYPREAKVQWKVDNALQSGNSQESVTEQDSKDSTYSLSSTLTLSKADYEKHKVYACEVTHQGLSSPVTKSFNRGEC
notes: Fc variant of MS1032LO06-SG1; positions in EU numbering

KD fold (SG1 = 1) [19]: 3.8 fold
KD fold (SG1 = 1) [20]: 4 fold
KD fold (SG1 = 1) [21]: 0.05 fold
KD fold (SG1 = 1) [22]: 0.5 fold
B2: M103205H795-MY201/M103202L889-SK1 (antibody, human IgG1, kappa)
heavy: QVTLKESGPVLVKPTETLTLTCTVSGIDLSHDDISWVRQAPGKGLEWVGIISYAGSTYYASWAKGRLTISKDTSKNQVVLTMTNMDPVDTATYYCARGVPAYSHGGDLWGQGTLVTVSSASTKGPSVFPLAPSSKSTSGGTAALGCLVKDYFPEPVTVSWNSGALTSGVHTFPAVLQSSGLYSLSSVVTVPSSSLGTQTYICNVNHKPSNTKVDKKVEPKSCDKTHTCPPCPAPELLNGPSVFLFPPKPKDTLMISRTPEVTCVVVDVSDEDPEVKFNWYVDGVEVHNAKTKPREEQYNSTYRVVSVLTVLHQDWLNGKEYKCKVSNKALPKPIEKTISKAKGQPREPQVYTLPPSREEMTKNQVSLTCLVKGFYPSDIAVEWESNGQPENNYKTTPPVLDSDGSFFLYSKLTVDKSRWQQGNVFSCSVMHEALHNHYTQKSLSLSP
light: DIVMTQSPATLSLSPGERATLSCTSSQSVYHANWLSWFQQKPGQPPKLLIYWASTLAYGVPSRFSGSGSGTDFTLTISSLQPEDAATYYCAGGYGGGRYAFGQGTKVEIKRTVAAPSVFIFPPSDEQLKSGTASVVCLLNNFYPREAKVQWKVDNALQSGNSQESVTEQDSKDSTYSLSSTLTLSKADYEKHKVYACEVTHQGLSSPVTKSFNRGEC
notes: Fc variant of SG1 with G236N/H268D/A330K; also called MS1032LO06-MY201

Reference: patent US20250076311A1 (Chugai, published 2025)
